Reference: doi:10.1101/2020.05.11.089193 (bioRxiv, 2020)
Like-named read-outs stand apart in the source and are kept apart here.

B1: Flavobacterium johnsoniae GldM C-terminally truncated after the first folded periplasmic domain (first 225 amino acids) (domain or fragment, UniProt Q5EGM3 1-225, looked up)
chain: MAGGKLTPRQKMINLMYLVFIAMLAMNVSKEVISAFGLMNEKFEAANTSSVTTNESLLTSLDQKAAEAKGEFAKAAETAHKVQAASKEFYDYIGTLKTQAVKGFEVDKETGKMPYEAMDRGDNIDDWFTGDGYTKKGNEIIAKIEKYKSDIKAALGTDKKYAGIISEVEKKFDVSDVKNKEGIKEKYLAYHFKGFPAIASAAKLSAWQNDVKKTEADVYNSALGK
B2: Flavobacterium johnsoniae GldL (natural protein, UniProt Q5EGM4 1-215, looked up)
chain: MALLSKKVMNFAYGMGAAVVIVGALFKITHFEIGPLTGTVMLSIGLLTEALIFALSAFEPVEDELDWTLVYPELANGQARKKEAKAETATDAQGLLSQKLDAMLKEAKVDGELMASLGNSIKNFEGAAKAISPTVDSIAGQKKYAEEMSMAAAQMESLNSLYKVQLESASRNAQANSEIAENAAKLKEQMASMTANIASLNSVYGGMLSAMSNKG
B3: Porphyromonas gingivalis ATCC 33277 PorM (natural protein, UniProt B2RLE8 1-516, looked up)
chain: MAVGSNGNANRQKMINLMYLVFIAMMALNVSSEVLDGFDKVDKSLTSSIDGSDKRNNLVLSELNTAYRTNPEKVKVWYERSLVLQKEADSLCTFIDDLKLAIARESDGKDAKVNDIRRKDNLDASSVVMLNPINGKGSTLRKEVDKFRELVATLMTDKAKLKLIEQALNTESGTKGKSWESSLFENMPTVAAITLLTKLQSDVRYAQGEVLADLVKSVDVGDYRVNSITAQVIPQSQIVMSGDTYKANIVLSSVDTTQRPDVFVNGKLLSPENMGLFTATAGAPGTYPVKGYIEMMGNDGVKIRRDFESEYFVTEPMASVAPTMMNVLYAGIDNPINIAVPGVAQQNVSATINNGTLTRRGNLWIARPTKVGSEAIISVTAQSGGRTIQMAKTTLRVRALPDPLPYIEYKDVQGNTKRFKGGRLGKREILAAGGIKAALDDDLLEVNYTVVKFQLVFYDSMGNSIPEVSDGASFSERQKRQIQNLGKGKRFYVTEVIARGPDGIERKIPAIEVIVN

Columns and labels:
cryo-EM structure [1] = molecular target: the molecule itself; assay: cryo-EM structure
cryo-EM structure [2] = molecular target: the molecule itself; assay: cryo-EM structure; remark: listed apart in the source

Protein | stoichiometry N (cryo-EM structure [1]) | stoichiometry N (cryo-EM structure [2])
B1 | 2 | 
B2 | 5 | 
B3 |  | 2
